The results in this text go back to article PMC2764309 (Science (New York, N.Y.), 2009).

Data set [1] has as its target T1, HipA mutant D309Q (Escherichia coli, UniProt P23874 1-440, D309Q).
T1 sequence: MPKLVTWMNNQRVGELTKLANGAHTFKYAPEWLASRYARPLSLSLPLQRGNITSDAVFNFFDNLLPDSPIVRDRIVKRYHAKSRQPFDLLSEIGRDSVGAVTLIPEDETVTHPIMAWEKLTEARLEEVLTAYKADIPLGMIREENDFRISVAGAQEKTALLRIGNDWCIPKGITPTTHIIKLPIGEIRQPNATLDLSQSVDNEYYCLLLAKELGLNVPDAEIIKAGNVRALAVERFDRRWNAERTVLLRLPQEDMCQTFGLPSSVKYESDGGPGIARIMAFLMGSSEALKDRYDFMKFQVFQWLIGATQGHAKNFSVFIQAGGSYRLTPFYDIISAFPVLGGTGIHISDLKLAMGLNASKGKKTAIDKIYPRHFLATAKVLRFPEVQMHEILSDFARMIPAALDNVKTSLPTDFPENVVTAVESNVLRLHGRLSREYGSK
Put plainly: crystal structure.

The data set “crystal structure” deals with the molecule itself. Put plainly: crystal structure.
Data set [2] concerns the target T1, HipA mutant D309Q. Put plainly: fluorescence polarisation. Background: Fluorescence polarisation rises when a labelled molecule tumbles more slowly, as on binding a larger partner.

B1: HipB (natural protein)
chain: MMSFQKIYSPTQLANAMKLVRQQNGWTQSELAKKIGIKQATISNFENNPDNTTLTTFFKILQSLELSMTLCDAKNASPESTEQQNLEW
As for B1, the binding result with HipA mutant D309Q [1] is reported as “binds”. Besides, the “stoichiometry N” value in the data set “crystal structure” was 2.

B2: EF-Tu peptide IREGGRTVGA (peptide)
peptide: IREGGRTVGA
In the case of B2, the Kd with HipA mutant D309Q [2] amounted to 15 ± 5 µM.

Broadly, the stoichiometry N is the number of molecules, sites or subunits per partner or assembly. The Kd is a measure of binding affinity in units of concentration. Read a high Kd as a looser complex.
